Where “and” joins values, the source holds several entries; their conditions need not be identical. Equal values may be shown once.

The conditions of the series: Staphylococcus aureus; pH 7; 25 °C; Thermal; CD; Hepes-NaOH 20 mM; NaCl 170 mM; reversible: Yes; whole UniProt chain shown.

B1: wild type, Q9EYL5 (protein)
chain: MTKKLLTLFIVSMLILTACGKKESATTSSKNGKPLVVVYGDYKCPYCKELDEKVMPKLRKNYIDNHKVEYQFVNLAFLGKDSIVGSRASHAVLMYAPKSFLDFQKQLFAAQQDENKEWLTKELLDKHIKQLHLDKETENKIIKDYKTKDSKSWKAAEKDKKIAKDNHIKTTPTAFINGEKVEDPYDYESYEKLLKDKIK
Take B1: the unfolding free energy is 7.19 kcal/mol and 7.14 kcal/mol.

Source of the values: FireProtDB (doi:10.1074/jbc.m707838200).
